What was measured:
[1] = molecular target: human nicotinic acetylcholine receptor α7 subunit with a three amino acid (IIC) deletion in TM4 (human) (UniProt P36544); experiment: radioligand binding
[2] = molecular target: T1, human nicotinic acetylcholine receptor α7 subunit, wild type (human, UniProt P36544 23-502); experiment: radioligand binding; settings: one partner purified
T1 construct: also called Hα7; human α7 nAChR

Molecule: [3H]-α-bungarotoxin (from UniProt P60615 22-95) (natural protein)
- EC50 [1]: 0.9 nM

B1: [3H]-α-bungarotoxin (natural protein)
chain: IVCHTTATSPISAVTCPPGENLCYRKMWCDAFCSSRGKVVELGCAATCPSKKPYEEVTCCSTDKCNPHPKQRPG
- EC50 [2]: 20 ± 5.8 nM
